Key:
[1] = test system: Staphylococcus aureus, NRS-385; assay: plate lysis assay (spectrum of lytic activity); type: cell-based; design: key: strong lytic zone = ++; weak lytic zone = +; no lytic zone = −; conditions: 6 μg; S. aureus NRS-385, MRSA
Procedure: (§1) The PlyGRCS spectrum of lytic activity was performed (Schmelcher M et al. (2012) Chimeric phage lysins act synergistically with lysostaphin to kill mastitis-causing Staphylococcus aureus in murine mammary glands. Appl Environ Microbiol 78(7):2297-305) with minor modifications. Bacterial cells were diluted in sterile PBS to an OD600=1, and 100 μl was spread on each plate. 10 μl spots (600 μg/ml) of PlyGRCS or CHAPGRCS were applied. Plates were incubated overnight at 37° C. Strength of lytic zones was defined qualitatively.

[2] = test system: Streptococcus pneumoniae, ATCC BAA-334; assay: plate lysis assay (spectrum of lytic activity); type: cell-based; design: key: strong lytic zone = ++; weak lytic zone = +; no lytic zone = −; conditions: 6 μg
Procedure: as §1

[3] = test system: Streptococcus pyogenes, D471; assay: plate lysis assay (spectrum of lytic activity); type: cell-based; design: key: strong lytic zone = ++; weak lytic zone = +; no lytic zone = −; conditions: 6 μg
Procedure: as §1

[4] = test system: Streptococcus suis, 730082; assay: plate lysis assay (spectrum of lytic activity); type: cell-based; design: key: strong lytic zone = ++; weak lytic zone = +; no lytic zone = −; conditions: 6 μg
Procedure: as §1

[5] = test system: Staphylococcus aureus, NRS-382; assay: plate lysis assay (spectrum of lytic activity); type: cell-based; design: key: strong lytic zone = ++; weak lytic zone = +; no lytic zone = −; conditions: 6 μg; S. aureus NRS-382, MRSA
Procedure: as §1

[6] = test system: Streptococcus uberis, ATCC 700407; assay: plate lysis assay (spectrum of lytic activity); type: cell-based; design: key: strong lytic zone = ++; weak lytic zone = +; no lytic zone = −; conditions: 6 μg
Procedure: as §1

[7] = test system: Enterococcus facealis, EF24; assay: plate lysis assay (spectrum of lytic activity); type: cell-based; design: key: strong lytic zone = ++; weak lytic zone = +; no lytic zone = −; conditions: 6 μg
Procedure: as §1

Bacillus pumulis, BJ0055 = assay: plate lysis assay (spectrum of lytic activity); type: cell-based; design: key: strong lytic zone = ++; weak lytic zone = +; no lytic zone = −; conditions: 6 μg
Procedure: as §1

[8] = test system: Streptococcus equi, ATCC 9528; assay: plate lysis assay (spectrum of lytic activity); type: cell-based; design: key: strong lytic zone = ++; weak lytic zone = +; no lytic zone = −; conditions: 6 μg
Procedure: as §1

[9] = test system: S. aureus NRS-14 (VISA strain); assay: bactericidal analysis (CFU counts, MBC); type: cell-based, Staphylococcus aureus; conditions: 1 hour, stationary phase
Procedure: Sterile-filtered PlyGRCS was 2-fold serially diluted in PBS supplemented with 1 mM CaCl2 and an equal volume of either various concentrations of enzyme or buffer only was added to 10^5 S. aureus NRS-14 in a microtiter plate. Samples were incubated at 37° C. for 1 hour, then serially diluted, plated on TSB agar, and incubated overnight at 37° C. to obtain CFU counts. The MBC (minimum bactericidal concentration) was determined as the minimum concentration of enzyme that killed ≧99.9% of bacteria.
It has been noted that the minimal inhibitory concentration (MIC) assay may not be the most appropriate assay to measure endolysin efficacy due to the speed at which the enzyme acts (Kusuma C M et al. (2005) Comparison of four methods for determining lysostaphin susceptibility of various strains of Staphylococcus aureus. Antimicrobial agents and chemotherapy 49(8):3256-63). Therefore, we employed the minimum bactericidal concentration (MBC) assay, which is the lowest concentration of enzyme that kills ≧99.9% (i.e. 3 logs) of the test inoculum (Jones R et al. (1985) Susceptibility tests: microdilution and macrodilution broth procedures. In: Balows A, Hausler J, Shadomy H (eds) Manual of Clinical Microbiology. American Society for Microbiology, Washington, D.C., pp 972-7).

[10] = test system: S. aureus cell walls (purified peptidoglycan); conditions: 50 μg/ml, one hour, 37° C.
Text: To determine an increase in free amine groups, the trinitrophenylation reaction was used, originally described by Satake et al. and modified by Mokrasch (Satake M et al. (1960) Incorporation of leucine into microsomalprotein by a cell-free system of guinea-pig brain. Biochim Biophys Acta 41:366-7; Mokrasch L (1967) Use of 2,4,6-trinitrobenzenesulfonic acid for the coestimation of amines, amino acids, and proteins in mixtures. Anal Biochem 18:64-71). […] Samples were pelleted and the supernatant was filtered through a 0.22 μM filter. The sterile filtrate was added to sodium tetraborate and trinitrobenzenesulfonic acid and incubated for 30 minutes at room temperature. Samples were read at OD420. Lysine was used as a standard.

[11] = circular dichroism melting experiments; type: physicochemical; conditions: 0.1 mg/ml, 20 mM sodium phosphate buffer pH 7, 20-95° C. at 1° C./min
Procedure: CD experiments for wild-type (WT) and active-site mutants were performed on a Chirascan CD spectrometer (Applied Photophysics) equipped with a thermoelectrically controlled cell holder. CD spectra were obtained in the far-UV range (190-260 nm) in a 1 mm path length quartz cuvette at 1 nm steps with 5 second signal averaging per data point. Spectra were collected in triplicate, followed by averaging, baseline subtraction, smoothing and conversion to mean residue ellipticity (MRE) by the Pro-Data software (Applied Photophysics). Secondary structure prediction was performed using the Provencher and Glockner method (Provencher S W & Glockner J (1981) Estimation of globular protein secondary structure from circular dichroism. Biochemistry 20(1):33-7) provided by DICHROWEB (Whitmore L & Wallace B A (2004) DICHROWEB, an online server for protein secondary structure analyses from circular dichroism spectroscopic data. Nucleic Acids Res 32:W668-73).
Melting experiments were performed by heating PlyGRCS at a 0.1 mg/ml concentration in 20 mM sodium phosphate buffer pH 7 from 20° C. to 95° C. using a 1° C./min heating rate. MRE was monitored at 218 nm in a 1 mm path length quartz cuvette at 0.5° C. steps with 5 second signal averaging per data point. The melting data was smoothed, normalized and fit with a Boltzmann sigmoidal curve. The first derivative of the melting curve was then taken to determine the temperature (Tm) at which the folded and unfolded protein species in solution were at equilibrium (Fallas J A & Hartgerink J D (2012) Computational design of self-assembling register-specific collagen heterotrimers. Nat Commun 3:1087).

B1: PlyGRCS: endolysin of bacteriophage GRCS (ORF15), amino acids 1-250, SEQ ID NO: 5, C-terminal 6× His tag (protein)
chain: MKSQQQAKEWIYKHEGTGVDFDGAYGFQCMDLAVAYVYYITDGKVRMWGNAKDAINNDFKGLATVYENTPSFKPQLGDVAVYTNSQYGHIQCVISGNLDYYTCLEQNWLGGGFDGWEKATIRTHYYDGVTHFIRPKFSASNSNVLETSKVNTFGNWKQNQYGTYYRNENATFTCGFLPIFARVGSPKLSEPNGYWFQPNGYTPYDEVCLSDGLVWIGYNWQGTRYYLPVRQWNGKTGNSYSIGLPWGVFS
modifications: C-terminal 6xHis tag; Synthetically generated polypeptide (PlyGRCS phage (S. aureus))
strength of lytic zone [1]: +
strength of lytic zone [2]: −
strength of lytic zone [3]: −
strength of lytic zone [4]: −
strength of lytic zone [5]: +
strength of lytic zone [6]: −
strength of lytic zone [7]: −
strength of lytic zone (Bacillus pumulis, BJ0055): −
strength of lytic zone [8]: −
reduction of bacterial counts ([9]; 6.25 μg/ml): 2 logs
log decrease ([9]; 12.5 μg/ml): 2.5 log
log killing ([9]; 25 μg/ml): 3 log
free amine release (amidase/endopeptidase activity) [10]: free amines were detected
Tm [11]: 43.5 °C

— patent US9872893B2, “Endolysins active against Staphylococcus bacteria, pharmaceutical compositions, and methods relating thereto” (priority 2014, dated 2018)
